From publication PMC3353419 (2013)

Target: T1, Haptoglobin (Homo sapiens, UniProt P00738)
T1 chain: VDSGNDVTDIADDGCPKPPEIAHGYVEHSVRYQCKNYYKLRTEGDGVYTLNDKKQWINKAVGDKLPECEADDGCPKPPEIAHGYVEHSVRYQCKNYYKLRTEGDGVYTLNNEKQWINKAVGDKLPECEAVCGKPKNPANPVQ
Assay: SPR

Kd: 0.823 nM
B1: Hemoglobin (protein)
chain 1: not shown
chain 2: not shown
modifications: dextran (10 kDa)-linker at beta Cys93
